Reference: patent publication US8470574B2, “L-succinylaminoacylase and process for producing L-amino acid using it” (Toyo Boseki Kabushiki Kaisha, priority 2008, dated 2013)
“Also recorded” adds a separate entry of the source.

Tests used:
[1] = Effect of metal ion on N-succinylamino acid racemase activity; type: biochemical; details: final concentration of 0.1 mM to 1 M
[2] = Ability of commercially available L-aminoacylase to synthesize L-tert-leucine, TLC (Comparative Example); type: biochemical; details: 2,600 U/mL enzyme solution, 25° C., 12 hours; TLC ninhydrin
Experimental: Acylase AMANO (Sigma, code No. 01818-5G) and porcine kidney Acylase I (Sigma, code No. A3010-100MG) were dissolved in 50 mM K-phosphate buffer (pH 7.5) so as to make each of them 2,600 U/mL to give an L-aminoacylase solution.
The above-mentioned 1 M HEPES (2.0 mL), 10 mM CoCl2 solution (0.1 mL) and 150 mM N-acetyl-L-tert-leucine (1.0 mL) were mixed with water (6.4 mL) to give a reaction reagent.
The above commercially available L-aminoacylase (Comparative Example 2) (0.5 mL) was added to the reaction reagent (9.5 mL) containing the above N-acetyl-L-tert-leucine and, after the above was gently stirred, the reaction was conducted at 25° C. for 12 hours. As a control test, the same reaction was conducted by adding 50 mM K-phosphate buffer (pH 7.5) to the reagent mixture in place of the L-aminoacylase solution. After the enzymatic reaction, the L-amino acid was directly detected by TLC and ninhydrin reaction by the same manner as in Example 2.

[3] = Synthesis of L-tert-leucine from N-succinyl-L-tert-leucine, TLC with ninhydrin detection (Examples 2, 3); type: biochemical; details: 57° C., 6 hours, CoCl2, HEPES pH 7.9
Experimental: The above-mentioned 1 M HEPES (2.0 mL), 10 mM CoCl2 solution (0.1 mL) and 150 mM N-succinyl-L-tert-leucine (1.0 mL) were mixed with water (6.4 mL) to give a reaction reagent.
(§1) The L-succinylaminoacylase (2.3 mg/mL, 0.5 mL) prepared in Example 1 was added to the reaction reagent (9.5 mL) containing the above N-succinyl-L-tert-leucine and, after the above was gently stirred, the reaction was conducted at 57° C. for 6 hours. As a control test, the same reaction was conducted by adding 50 mM K-phosphate buffer (pH 7.5) to the reagent mixture in place of the L-succinylaminoacylase solution. […]
(§2) N-Succinyl-L-valine, N-succinyl-L-phenylalanine, N-succinyl-L-tryptophan, N-succinyl-L-asparagine, N-succinyl-L-aspartic acid, N-succinyl-L-serine, N-succinyl-L-glutamic acid, N-succinyl-L-tert-leucine, N-succinyl-L-cyclohexylglycine or N-succinyl-L-4-bromophenylalanine is used as an N-succinyl-L-amino acid and a reaction reagent was prepared according to the method for the case of N-succinyl-L-tert-leucine. L-succinylaminoacylase of Example 1 was made to react using the resulting reaction reagent to synthesize an L-amino acid and the L-amino acid was directly detected by the same manner as in Example 2.

[4] = Synthesis of L-valine from N-succinyl-L-valine, TLC detection (Example 3); type: biochemical; details: TLC ninhydrin, as Example 2
Experimental: (§3) The reaction reagent containing the N-succinyl-L-amino acid as such was prepared by the same method as in the preparation of a reaction reagent containing N-succinyl-L-tert-leucine mentioned in (1).
as §1, §2

[5] = Synthesis of L-phenylalanine from N-succinyl-L-phenylalanine, TLC detection (Example 3); type: biochemical; details: TLC ninhydrin, as Example 2
Experimental: as §3, §1, §2

[6] = Synthesis of L-tryptophan from N-succinyl-L-tryptophan, TLC detection (Example 3); type: biochemical; details: TLC ninhydrin, as Example 2
Experimental: as §3, §1, §2

[7] = Synthesis of L-asparagine from N-succinyl-L-asparagine, TLC detection (Example 3); type: biochemical; details: TLC ninhydrin, as Example 2
Experimental: as §3, §1, §2

[8] = Synthesis of L-aspartic acid from N-succinyl-L-aspartic acid, TLC detection (Example 3); type: biochemical; details: TLC ninhydrin, as Example 2
Experimental: as §3, §1, §2

[9] = Synthesis of L-serine from N-succinyl-L-serine, TLC detection (Example 3); type: biochemical; details: TLC ninhydrin, as Example 2
Experimental: as §3, §1, §2

[10] = Synthesis of L-glutamic acid from N-succinyl-L-glutamic acid, TLC detection (Example 3); type: biochemical; details: TLC ninhydrin, as Example 2
Experimental: as §3, §1, §2

[11] = Synthesis of L-cyclohexylglycine from N-succinyl-L-cyclohexylglycine, TLC detection (Example 3); type: biochemical; details: TLC ninhydrin, as Example 2
Experimental: as §3, §1, §2

[12] = Synthesis of L-4-bromophenylalanine from N-succinyl-L-4-bromophenylalanine, TLC detection (Example 3); type: biochemical; details: TLC ninhydrin, as Example 2
Experimental: as §3, §1, §2

[13] = Conversion of N-succinyl-L-tert-leucine to L-tert-leucine, HPLC (Example 4); type: biochemical; details: 1 wt % N-succinyl-L-tert-leucine, pH 7 to 8, 1 mM CoCl2, 57° C., up to 90 hours
Experimental: (§4) An L-succinylaminoacylase solution (1 mL; 2.3 mg/mL) was added to a 1 wt % solution of N-succinyl-L-tert-leucine (pH 7 to 8; 10 mL; containing 1 mM of CoCl2) and made to react at 57° C. for 90 hours with stirring to give L-tert-leucine. The sample was collected after 16 hours, 42 hours, 65 hours and 90 hours from the start of the reaction and subjected to an HPLC measurement under the following condition to confirm the peaks of succinyl-form compound and free-form compound whereby the synthesis of L-tert-leucine from N-succinyl-L-tert-leucine was confirmed.
Column: Inertsil ODS-2 (particle size: 5 μm; 4.6 mm inner diameter×250 mm length) manufactured by GL Science
Eluant: aqueous solution of phosphate (pH 2.3)/acetonitrile for HPLC=80:20
Column temperature: 40° C.

[14] = Conversion of N-succinyl-DL-tert-leucine to L-tert-leucine, HPLC (Example 5); type: biochemical; details: 1 wt % N-succinyl-DL-tert-leucine, pH 7 to 8, 1 mM CoCl2, 57° C., 90 hours, theoretically highest yield 50%
Experimental: as §4, with “N-succinyl-DL-tert-leucine” for “N-succinyl-L-tert-leucine”, “finishing” for “16 hours, 42 hours, 65 hours and 90 hours from the start of”, “the” for “the following”, “condition same as the Example 4” for “condition”, “confirmed. As a result, the yield was 45% or more and the value near 50% which is the theoretically highest yield was achieved.” for “confirmed.”

[15] = Conversion of N-succinyl-DL-tert-leucine to L-tert-leucine with N-succinylamino acid racemase, HPLC (Example 6); type: biochemical; details: used together with N-succinylamino acid racemase, 1 wt % N-succinyl-DL-tert-leucine, 1 mM CoCl2, 57° C., up to 90 hours
Experimental: An L-succinylaminoacylase solution (1 mL; 2.3 mg/mL) prepared in Example 1 and the above N-succinylamino acid racemase (0.1 mL; 10.5 mg/mL) were added to a 1 wt % solution of N-succinyl-DL-tert-leucine (pH 7 to 8; 10 mL; containing 1 mM of CoCl2) and made to react at 57° C. for 90 hours with stirring to synthesize L-tert-leucine. The sample was collected after 24 hours and 90 hours from the start of the reaction and subjected to an HPLC measurement under the condition same as Example 4 to confirm the peaks of succinyl-form compound and free-form compound whereby the synthesis of L-tert-leucine from N-succinyl-DL-tert-leucine was confirmed.

[16] = Activity to N-succinylamino acid compared with N-acetylamino acid; type: biochemical
[17] = Temperature stability of the enzyme; type: physicochemical; details: heating treatment for 30 minutes
Optimum pH of the enzyme = type: biochemical; details: reaction at 60° C. for 30 minutes
[18] = Effect of metal ion on L-succinylaminoacylase activity; type: biochemical; details: metal ion Co2+ versus Zn2+

B1: N-succinylamino acid racemase: N-succinylamino acid racemase (gene SEQ ID No: 3) derived from Geobacillus stearothermophilus NCA 1503 strain, per JP-A No. 2008-61642 (protein, listed as Geobacillus stearothermophilus)
chain: MAINIEYVILRHLQMELKAPFTTSFGTFQRKELILVEVVDRDGVSGWGESVAFSAPWYSEETVKTNWHMLEDFLVPLALAEPIHHPEELSKRFSAIRQNNMAKAALEGAVWDLYAKRLGVPLSQALGGAKKDIEVGVSIGIQPTVADLLQVIERYVAQGYRRIKVKIKPSWDVDVIREVRRVFPDVPLMADANSAYTLVDADRLKALDEFGLLMIEQPLAADDLVDHARLQPLLQTPICLDESIRSYDDARKALDLGSCRIINIKIGRVGGLGEAKRIHDLCAERGAPVWCGGMLEAGVGRAHNIAITTLENFTLPGDTAASSHYWERDIITPEVEVHGGLIRVPDAPGIGYDVDRRQVERYTQFAKVFHRTATA
modifications: CDS (1)..(1128)
relative activity with Co2+ as compared with Mn2+ [1]: twice or more higher

B2: porcine kidney Acylase I: commercially available L-aminoacylase (Sigma, code No. A3010-100MG) (protein, UniProt P37111 2-407, looked up)
Aminoacylase-1: ASKGREGEHPSVTLFRQYLRIRTVQPEPDYGAAVAFLEERARQLGLGCQKVEVVPGHVVTVLTWPGTNPTLSSILLNSHTDVVPVFKEHWSHDPFEGFKDADGYIYGRGAQDMKCVSIQYLEAVRRLKVEGHHFPRTIHMTFVPDEEVGGHQGMELFVKRPEFQALRAGFALDEGLASPTDAFTVFYSERSPWWLRVTSTGKPGHGSRFIEDTAAEKLHKVINSILAFREKEKQRLQSNQLKPGAVTSVNLTMLEGGVAYNVVPATMSACFDFRVAPDVDLKAFEEQLQSWCQAAGEGVTFEFVQKWMETQVTSTDDSDPWWAAFSGVFKDMKLALELEICPASTDARYIRAAGVPALGFSPMNHTPVLLHDHDERLHEAVFLRGVDIYTQLLSALASVPALPSES
ability to synthesize L-tert-leucine from N-acetyl-L-tert-leucine [2]: unable to synthesize L-tert-leucine

B3: L-succinylaminoacylase: L-succinylaminoacylase of NCA 1503 strain of Geobacillus stearothermophilus; amino acid sequence SEQ ID No: 2, expressed in Escherichia coli JM 109 (pLSA1) (protein, listed as Geobacillus stearothermophilus)
chain: MKEIVEQMKAELWEVFDHLHRHPEISWEEWQTTEFLRRELEREGYRVRTFADCPGVVAEIGAGPFTVGVRSDMDALWQEVNGVWQPNHACGHDAHMTIVLGVAKLLRRIGYEPPGTLRFLFQPAEEKGTGALKLIEKGAVDGVSFLYGVHLRPIQEVKGGYAAPAIIHGAAQCIEGRIRGVAAHAARPHLGVNVIEVGSAIVQELGKIHIDPQVPASIKMTKFHAGEKDANTIPGYAEFALDLRAQTNEAMERLVEGLRHVINGVAAIYGAEIELVERTRIVAAHPDPDAVRLMEEAIIAALGTEKCVPPVVTSGGEDFHFYSFQKPELKTTMLGLGCDLRPGLHHPNMTFRRDDLLSGVEILARTVINTFALQGENERVSVAANH
ability to produce L-tert-leucine from N-succinyl-L-tert-leucine [3]: able to produce the L-tert-leucine; also recorded: able to synthesize the corresponding L-amino acid; also recorded: reacts | ability to synthesize L-valine from N-succinyl-L-valine [4]: able to synthesize the corresponding L-amino acid | ability to synthesize L-phenylalanine from N-succinyl-L-phenylalanine [5]: able to synthesize the corresponding L-amino acid | ability to synthesize L-tryptophan from N-succinyl-L-tryptophan [6]: able to synthesize the corresponding L-amino acid | ability to synthesize L-asparagine from N-succinyl-L-asparagine [7]: able to synthesize the corresponding L-amino acid | ability to synthesize L-aspartic acid from N-succinyl-L-aspartic acid [8]: able to synthesize the corresponding L-amino acid | ability to synthesize L-serine from N-succinyl-L-serine [9]: able to synthesize the corresponding L-amino acid | ability to synthesize L-glutamic acid from N-succinyl-L-glutamic acid [10]: able to synthesize the corresponding L-amino acid | ability to synthesize L-cyclohexylglycine from N-succinyl-L-cyclohexylglycine [11]: able to synthesize the corresponding L-amino acid; also recorded: reacts | ability to synthesize L-4-bromophenylalanine from N-succinyl-L-4-bromophenylalanine [12]: able to synthesize the corresponding L-amino acid; also recorded: reacts | yield (conversion rate into L-tert-leucine) [13]: ≥ 90% | yield of L-tert-leucine [14]: ≥ 45% | yield (conversion rate into L-tert-leucine) [15]: about 85% | activity to N-succinylamino acid relative to N-acetylamino acid [16]: at least 100 fold | Temperature stability: temperature at which inactivated [17]: ≥ 75 °C | Temperature stability: temperature at which stable [17]: 70 °C | Optimum pH (Optimum pH of the enzyme): 7 | activity increase with Co2+ as compared with Zn2+ [18]: twice or more
